# Experimental data as given in patent US20190275087A1, “EXPANSION AND DIFFERENTIATION OF STEM CELLS” (Allergan Pharmaceuticals International Limited, priority 2018, published 2019).
# B1: recombinant human tropoelastin (Elastagen) (ligand, UniProt P15502-2 27-724, looked up)
# chain: GGVPGAIPGGVPGGVFYPGAGLGALGGGALGPGGKPLKPVPGGLAGAGLGAGLGAFPAVTFPGALVPGGVADAAAAYKAAKAGAGLGGVPGVGGLGVSAGAVVPQPGAGVKPGKVPGVGLPGVYPGGVLPGARFPGVGVLPGVPTGAGVKPKAPGVGGAFAGIPGVGPFGGPQPGVPLGYPIKAPKLPGGYGLPYTTGKLPYGYGPGGVAGAAGKAGYPTGTGVGPQAAAAAAAKAAAKFGAGAAGVLPGVGGAGVPGVPGAIPGIGGIAGVGTPAAAAAAAAAAKAAKYGAAAGLVPGGPGFGPGVVGVPGAGVPGVGVPGAGIPVVPGAGIPGAAVPGVVSPEAAAKAAAKAAKYGARPGVGVGGIPTYGVGAGGFPGFGVGVGGIPGVAGVPGVGGVPGVGGVPGVGISPEAQAAAAAKAAKYGVGTPAAAAAKAAAKAAQFGLVPGVGVAPGVGVAPGVGVAPGVGLAPGVGVAPGVGVAPGVGVAPGIGPGGVAAAAKSAAKVAAKAQLRAAAGLGAGIPGLGVGVGVPGLGVGAGVPGLGVGAGVPGFGAVPGALAAAKAAKYGAAVPGVLGGLGALGGVGIPGGVVGAGPAAAAAAAKAAAKAAQFGLVGAAGLGGLGVGGLGVPGVGGLGGIPPAAAAKAAKYGAAGLGGVLGGAGQFPLGGVAARPGFGLSPIFPGGACLGKACGRKRK
# What was measured:
# MSCs [1] = assay: Cell migration via chemotaxis (Boyden chamber); format: cell-based, Human; conditions: tropoelastin in solution, lower chamber
# Description: Chemotaxis was measured using a fluorimetric 96-well Boyden chamber assay system (QCM Chemotaxis Cell Migration Assay, Millipore) according to the supplier's instructions. Normal, tropoelastin-supplemented, or growth factor-supplemented media was added to the lower chamber of the well plate, while MSCs were seeded at 14,300 cells/cm^2 in normal media into the upper chamber. Where indicated, integrin-blocking antibodies were added at optimized concentrations to the upper chamber with the cells. Cells that migrate through the permeable membrane into the lower chamber were detached and quantified. Normalized cell migration was calculated by subtracting the extent of undirected cell migration (where no chemoattractant was added to the lower chamber) from each experimental result.
# MSCs [2] = assay: MSC adipogenic differentiation (intracellular lipid, Oil Red O); format: cell-based, Human
# Description: (§1) MSCs were grown in various media formulations and on bare or protein-coated tissue culture wells for 7 days. The expanded cells were harvested, re-seeded on TCP, and differentiated into the adipogenic, osteogenic and chondrogenic lineages using the hMSC Adipogenic BulletKit®, hMSC Osteogenic BulletKit®, and hMSC Chondrogenic BulletKit® (Lonza), respectively, following the manufacturer's instructions.
# (§2) To confirm adipogenesis, cells that had been induced for 25 days were washed with PBS, fixed with 10% (v/v) formalin for 30 min, then washed with water. Cells were incubated with 60% (v/v) isopropanol for 5 min and stained for intracellular lipid droplets with 1.8 mg/mL Oil Red O in isopropanol for 20 min. Excess stain was removed with 5 washes of water.
# MSCs [3] = assay: Flow cytometry of MSC surface marker expression; format: cell-based, Human
# Description: MSCs cultured for 5 or 7 days in various media formulations and on bare or protein-coated tissue culture wells were trypsinised and pelleted. The cell pellets were washed with 0.22 μm filtered FACS buffer (5% v/v FBS in PBS) and re-centrifuged at 270 g for 5 min. The cells were resuspended in FACS buffer to a concentration of 100,000 cells in 100 μL total volume, and probed for MSC marker expression using the Human Mesenchymal Stem Cell Verification Flow Kit (R&D Systems®). Isotype and unstained control samples were prepared using MSCs cultured in standard growth media on tissue culture plastic. Cells were analyzed using a BD™ Biosciences LSR II Flow Cytometer System. Singlet cells were determined by their forward scatter-to-side scatter and scatter height-to-width ratios, while viable cells were identified by exclusion of 1:20 propidium iodide. Only singlet, viable cells were analyzed for marker expression.
# MSCs [4] = assay: MSC osteogenic differentiation (mineralized calcium, Alizarin Red S); format: cell-based, Human
# Description: as §1
# (§3) To confirm osteogenesis, cells that had been induced for 14 days were fixed and stained for mineralized calcium deposits with Alizarin Red S, as previously described. Cells from the adipogenic and osteogenic experiments were imaged with a Zeiss Axio Vert.A1 microscope using an AxioCam 105 colour camera.
# MSCs [5] = assay: MSC chondrogenic differentiation (glycosaminoglycans, Alcian Blue); format: cell-based, Human; conditions: for decreased MSC chondrogenesis: tropoelastin addition during differentiation
# Description: as §1
# To confirm chondrogenesis, cell pellets that had been induced for 14 days were washed with PBS, embedded in 1.5% (w/v) agar containing 0.85% (w/v) NaCl, and fixed with 10% (v/v) formalin overnight. The samples were dehydrated in 70% (v/v) ethanol for 1 day, then paraffin-embedded, sectioned, mounted onto slides, stained with Alcian Blue (pH 2.5) for 1 hour and counterstained with Nuclear Fast Red. Samples were imaged with an Olympus VS120 Slide Scanner.
# MSCs [6] = assay: Tri-lineage differentiation of MSCs expanded with tropoelastin; format: cell-based, Human; conditions: substrate-bound or soluble, replacing growth factors, normal or reduced serum media
# Description: as §1, §2, §3
# To confirm chondrogenesis, cell pellets that had been induced for 14 days were washed with PBS, embedded in 1.5% (w/v) agar containing 0.85% (w/v) NaCl, and fixed with 10% (v/v) formalin overnight. […]
# [7] = biological target: αv integrins (all αv subunit integrins) on human MSCs (human, UniProt P06756 31-1048); assay: cell-based or functional assay
# [8] = tropoelastin addition during MSC expansion
# [9] = tropoelastin addition during differentiation
# [10] = tropoelastin during both expansion and differentiation stages
# [11] = tropoelastin-coated surfaces, all media formulations, 5 days post-seeding
# [12] = TE days 2-5, 3-6 or 4-7 of 7-day proliferation period
# αv integrins (all αv subunit integrins) on human MSCs, sequence (P06756 31-1048, form in doubt): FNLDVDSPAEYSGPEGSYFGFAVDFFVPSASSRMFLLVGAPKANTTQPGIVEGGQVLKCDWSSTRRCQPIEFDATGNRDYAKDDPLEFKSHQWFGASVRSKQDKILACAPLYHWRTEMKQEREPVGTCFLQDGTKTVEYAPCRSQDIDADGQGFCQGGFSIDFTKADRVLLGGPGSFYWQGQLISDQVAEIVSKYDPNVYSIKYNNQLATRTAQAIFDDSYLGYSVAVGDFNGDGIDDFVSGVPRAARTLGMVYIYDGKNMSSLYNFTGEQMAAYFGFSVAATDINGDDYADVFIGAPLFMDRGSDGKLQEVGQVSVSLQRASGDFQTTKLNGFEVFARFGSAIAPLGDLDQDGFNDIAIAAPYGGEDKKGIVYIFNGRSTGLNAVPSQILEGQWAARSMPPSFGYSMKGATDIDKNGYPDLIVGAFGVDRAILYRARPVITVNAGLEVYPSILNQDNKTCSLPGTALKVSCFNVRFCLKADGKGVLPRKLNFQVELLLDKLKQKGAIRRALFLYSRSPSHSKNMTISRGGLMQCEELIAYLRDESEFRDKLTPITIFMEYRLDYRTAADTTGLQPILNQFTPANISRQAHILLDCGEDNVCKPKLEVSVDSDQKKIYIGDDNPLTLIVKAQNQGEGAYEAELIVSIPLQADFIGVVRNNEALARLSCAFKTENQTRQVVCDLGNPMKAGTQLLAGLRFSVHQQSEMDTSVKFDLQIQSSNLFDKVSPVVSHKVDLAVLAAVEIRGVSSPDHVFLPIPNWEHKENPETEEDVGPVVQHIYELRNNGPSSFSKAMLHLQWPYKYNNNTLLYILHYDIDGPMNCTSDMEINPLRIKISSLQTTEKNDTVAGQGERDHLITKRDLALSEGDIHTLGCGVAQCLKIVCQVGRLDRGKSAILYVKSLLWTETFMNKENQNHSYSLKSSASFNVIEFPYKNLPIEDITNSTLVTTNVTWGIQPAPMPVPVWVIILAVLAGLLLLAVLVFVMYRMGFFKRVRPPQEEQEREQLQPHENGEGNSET
molecule,measurement,setting,value
B1,chemotactic response of MSCs,MSCs [1],dose-dependent chemotactic response
same,intracellular lipid formation,MSCs [2]; 20 μg/ml TE during both expansion and induction stages,increase in intracellular lipid formation
same,intracellular lipid formation compared to culture lacking TE,MSCs [2]; induced in the presence of TE,increase in intracellular lipid formation
same,increased adipogenesis,MSCs [2]; [8],33%
same,increased adipogenesis,MSCs [2]; [9],19%
same,promoted adipogenesis,MSCs [2]; [10],69-85%
same,MSC marker expression profile,MSCs [3]; 20 μg/mL soluble in media,"displayed characteristic CD90+, CD105+, CD73+ and lineage negative expression profiles"
same,MSC phenotype (marker expression),"MSCs [3]; substrate-bound, replacing one or both growth factors, full or reduced serum media",fully retained
same,"cells expressing positive MSC markers CD90, CD105 and CD73",MSCs [3]; [11],more than 95%
same,"cells lacking hematopoietic markers CD34, CD45, CD11b, CD79a and HLA-DR",MSCs [3]; [11],more than 98%
same,osteogenesis versus timing of exposure during expansion,MSCs [4]; [12],maximum effect associated with tropoelastin exposure in the later stages of expansion
same,increased osteogenesis compared to cells grown on TCP,MSCs [4]; cells grown on coating,113%
same,mineralized calcium,MSCs [4]; cells induced and exposed to TE,increase in mineralized calcium concentrations
same,MSC osteogenesis with tropoelastin added to hyaluronic acid,MSCs [4]; different molecular weight hyaluronic acid formulations,promoted MSC osteogenesis
same,increased osteogenesis compared to cells exposed from days 2-5,MSCs [4]; exposed days 4-7 of seven-day expansion,24%
same,osteogenesis dose response,MSCs [4]; grown in at least 2 μg/mL TE and induced in 20 μg/mL TE,Maximum osteogenesis
same,improved osteogenesis,MSCs [4]; [9],55%
same,increased osteogenesis,MSCs [4]; [10],up to 131%
same,improved osteogenic potential,MSCs [4]; tropoelastin present during MSC expansion,42%
same,effect on chondrogenic differentiation,MSCs [5]; TE added during the induction stage,inhibited chondrogenic differentiation
same,pro-chondrogenic effects versus timing of exposure during expansion,MSCs [5]; [12],observed only when tropoelastin was present in the early stages of expansion
same,concentration during induction stage that significantly inhibited chondrogenic differentiation,MSCs [5]; TE present during induction,≥ 2 µg/mL
same,glycosaminoglycan production,"MSCs [5]; expanded in 20 μg/ml TE, induced in the absence of TE",highest extent of glycosaminoglycan production
same,glycosaminoglycan levels compared to cells expanded without TE,"MSCs [5]; expanded in presence of TE, TE not present during differentiation",increased glycosaminoglycan levels
same,increased chondrogenesis compared to cells exposed from days 4-7,MSCs [5]; exposed days 2-5 of expansion period,71%
same,improved chondrogenesis,MSCs [5]; [8],134%
same,decreased MSC chondrogenesis,MSCs [5]; cells expanded with tropoelastin,80%
same,decreased MSC chondrogenesis,MSCs [5]; cells expanded without tropoelastin,63%
same,differentiation capacity after expansion,MSCs [6],exhibited the capacity for multi-lineage differentiation
same,focal adhesions per cell (vinculin staining) of MSCs on tropoelastin compared to those on BSA,[7],1.5 fold
